From publication PMC2191818 come the findings set out here.

In the assay the target is HLA-B*0702 class I heavy chain (free heavy chain, C1R transfectant B7C1R) (human). The assay can be described thus: nonreducing SDS-PAGE of immunoprecipitates.

As usually defined, the stoichiometry N is a count of units in the complex or per binding partner.

“HLA-B*0702 class I heavy chain (free heavy chain, C1R transfectant B7C1R) (natural protein)”: the stoichiometry N worked out at 2.
